# Experimental data: the DeepSol protein solubility set
# Test: soluble on expression in E. coli; label from the status in PepcDB or PDB records
row,Sequence,soluble on expression in E. coli
1,MITLFTFGPSFGLPDASPFVMKAELLLKMAGLPYQTARGNLRRAPKGKLPYLDDMGRIVADSTLIRWHIEKTYHVDFDEGLSPAERGTAWAVEKLMEDNLYWAVARVRWLERDNFERGPAQFFNVVPGPLRGLVKVLVRRKVRQMLWAQGLGRHSEQDMTAMAVQGIKAITDILGDKPYLMGNNPCGADATLFAFAASLLSPVFETPIRAAAESHPNLIAYMARMRTRYYPDFQGSGVFAPASAATAGRPEAAFGQQLEHHHHHH,soluble
2,MGSDKIHHHHHHMKVTLKTLTPLHIGSGEKYPPCNLVVLKEEENKKTAVRLITRKFLEVLRKHPEIKQNISENISKPLSFKEVENVEDGVFYEVSLYSDFSSGKKNPEIPEVVHHPDGSVYVPGSSLKGAVRLALTWHVLRNNRNLLEEFRRNVQKDLQNHKRAFYQTNEFLNGLFRFAPKEINTDYFRFLRVSDSQTLRTQLVVHDVGIFYVARPNTHPRTFPLEFVPINRDFVFDVRFVKEEYDYFLTHVRKRYGVELPGSIEEIFSIVNEFYSEVFKFERERFKKAKENFEKLDTSKIEERFQKIEKVLQSKKYVLIHIGYGGGLMANSLFILLDEETRKQVRNIIKYHKDDEAPLTRRYLVQSENNSYRVISPIGWCALWLEDSQST,not soluble
3,MEHTIAVIPGSFDPITYGHLDIIERSTDRFDEIHVCVLKNSKKEGTFSLEERMDLIEQSVKHLPNVKVHQFSGLLVDYCEQVGAKTIIRGLRAVSDFEYELRLTSMNKKLNNEIETLYMMSSTNYSFISSSIVKEVAAYRADISEFVPPYVEKALKKKFK,not soluble
4,MYMSSLQSTRERVLGTPRRRYKVLVAKMGLDGHDRGAKVVARALRDAGFEVVYTGLRQTPEQVAMAAVQEDVDVIGVSILNGAHLHLMKRLMAKLRELGADDIPVVLGGTIPIPDLEPLRSLGIREIFLPGTSLGEIIEKVRKLAEEKRMREEAEASEQVGQA,soluble
5,MIDIIANIASILGFTMQMNDKFFAHGMNKEQADNEMLLLFLKQLSVKSKAIKEIHQKYHSLSNDFRLVAVFLTNPVIYEKIVTNRSRALRNALKESLQTPSARIAQTQLSAQLRPCFENLLVSIKDESHLSVEFSGINDCEMKAILRKILNAQKEIFQLHQQFCGIMKTIGSYPLGNWGDSEFDFIKTNQRVFISDFYSIIDYADIILMGYLDIYHCALNLK,not soluble
6,MATSSHLNWLIIRNNNAFLLKKRDVKKPFSTEPNNLASVSSYRYSGIVHKKTLGVVPAADKKGFTAVLKKGKYAQRPAKNTVRVDFKAGPRRSLKKLKNLLIGSKYRKDLTQAALRRASAVLRSQKPAPVKGKKAEFAKGKKPELEHHHHHH,not soluble
7,NEKITKKDALELFSLPIHAVGRIADEIRKVKCGDLVTFVNDTNINYTNICLSKCRFCAFYAREKGYVLSHEEILRKVGYAVKMGATQIMLQGGMNPDLGLEWFEELFRKIKARFSSVHIHSLSPPEIVFLAKLERSSIREVLDRLKAAGLDSLPGGGAEILVDSVRRKISPNKCSSDEWLRVMETAHSLNMPTTATMMFGHVESDGDIVEHLIKIRELQEKTGGFTAFIPWTFQPGNTELYAEIKRPVSPLRYLQVLAISRIVLNNFRNIQASWLTQGFEIATLSLFFGANDFGGTMLEENVVRATGKDFRPAKIEEIVKAVKAVGRPVALR,soluble
8,MGSDKIHHHHHHMQSTALRYFLEVARCGSISEASVRLNVASSAVSRQISKLERELDALLFERQARGMMLSEAGIRLAAYARKSQLEAEQVVLEITELQGLQRGHVRIACSEGFALDFLPQCIARFRRLYQGIHFSMEVCAPAQATERVRSGDADLCLTFSLTPQNEIKVEHIHSGAICAVVSHNHPLASRKEVALAELQPYAIALTNTDTTLRQLFDICCGVQGLMFDPVLTSNYIGSLLRFVSEEGGISLSSEMTLDKRVHEKQLKSLPISDEGMKARRIELQSMAGRNLPAAVAAFRDFLIEELAKT,not soluble
9,EKPANRQQTLEILAQHIEMDGVRQFLSKSLFKNEDHMAWRFNVDSLLSNYAEIIGWQDIAPTEIPTLFIKGGDSDYLMPEHQPSVQRQFKQAKAHIIANTGHWLHAEKPAEVMRVIRKYISS,not soluble
10,MGSDKIHHHHHHMTINQEHLTDCKLCKAHSWELVATLISGIWDKRHDELNREELRFPIGQCTKCHHVQVAIPYTQSIFDSLYFSNQAEPDMWCETPNGQKSPYEEMLEFIAPYIQDGAHIVDFGAGAGTTLKHIENTHKERQLTLASVDFHNHIQSETIEYLSADLNKLEALQAEFVTQPISLAISTHVLEHLIDPIHFLTQIRSMLSDDGHIFIEVPDCSPDAFIEHLAFTNLVHGQHIHYYSKDSLAQIARLAGLKIDALQQLTTGDIPRLLILLSKTTQESSTTVLPVTSGADVAVVKRFNDYHAFQDSLFKQIQQALMLNDTIGIWGIGGDFYQLTQSYPELIDLIQANSIILYDYELAGHTYVGSSIRCSSAIASTRYPVFMLPLYAPTREKMHQVSQSWSAQVIDPF,not soluble
11,PMEQVVRIHASSGTTGKPTVVGYTQNDIDNWANIVARSLRAAGGSAKDKIHVAYGYGLFTGGLGAHYGAERLGATVIPMSGGQTEKQAQLIRDFQPDMIMVTPSYCLNLIEELERQMGGDARGCSLRVGVFGAEPWTLAMRAEIERRLGITALDIYGLSEVMGPGVAMECLETVDGPTI,not soluble
12,GTVEGVVGVTREVTEQRKHEMEIARQRSILKAQQEAVIDGILVVDEDDTIVSYNERFVDMWDIPRDIVERGDEEIALEWAMEQVAEPEAFRVDVEALYEDPETTARDELELADGRVFDRYTAPVVAEDGTRFGRLWAFRD,not soluble
13,MGSDKIHHHHHHMMKILFIYRHPSMGFSIGKVFRPIEEEMKKYAEVDSIYMPTSQYSLNSIWQNIKTTRKAINSKKYDIVHITGTEHYLIPFLLGEKVVVTVHDLGHYFDIHGLKKILFWIMQIFSLKFAKAITCISNFTVQELKKTISIKNNKISVIFNEVDKNFSFKEKEFNKDYPVILHIGTRPHKNLSRTIKALNGIKCKLRIIGEITNKELDLLQKYKTDYSFASNLSDNDLLKEYQNADIINFPSCHEGFGMPIIEGQAVGRIVVTSNIEPMISVANNGAAICDPYNIESIRNTYIRVINDFQYRNDIILKGIDNVKKYSIETVAKQYFELYKTL,not soluble
14,MGSDKIHHHHHHMTKIGEKRYIFYLTNTKIDQSIMLSELKTFIAVSQYGTFSGAGARIGLTQSAVSAQMQRLEEELGFALFDRTGRSATLNDAGRETLALAEEMMTLYARLSERGAVAAESGMLRVGAIASAQVSFLADALARFRDDRPGWRIRVVPGVSLGLLGQVDSGELDLAVIIKPPFALPSELEWRTLVTEPFVLLVPKALVRGKGNARSWRELLRSEPFIRYDRTSFGGRLVDRFLRRSRLNVHDVIELDELQGIVQLVARGIGVALIPDSAGLGKWPAGVAALELGEATFQREIGLVQRPRHSRQAVAGVLADCIGTAAGV,not soluble
15,MSLYQEFFTFIPVDIEELDKAFGGGLIRGATISIMYDAFSLGWALGFEMVKNLIRRNSFGVIHNYNLPTIKLISRASFVGLNIQELAKRKEIMILDVFGSKYDVPPYADYVLQVPNPTPETLNPKIESVYENKIFQVAGDRRIVKLVYTLDGVATMFGEEVAIKLLNGELAWLAKMYGKRNVMTILLLNVDMVSKKFIAWTSGVSDIVITFQSLTEEREGELVERMTVIKSLNPEFEPTSYEFRVTATGTGSHALDFRKIENEGHHHHHH,not soluble
16,MEIGQRVRINFEVATVRYIGEVDGYGSQRWVGLEWDDPTRGKHDGIVRGKRYFQTRHPNGGSLMKHEIVPKPTDLLFEIKDRYIEEESVETEIELAQSNKKIELIGMDQTAAKQSNIEKLINIVLDNRSVGFPPSSDSPQFILCRELNLYGNLLYKWKTVRQILEYFPRIQELNLRRNRMQCFNEEEDDDESEGDDHVYSDSCKKLVISECNLSENSIDSILLRFPSTSDVVAFGNDLTRFSVSEAVSSRLTSLDLEDNPFKTLDSIHGTFPNLTQLSVANCGITSLNGFDGSIKFPKLEYLNIKRNSIVEWKSVNSIRSLKSLKRLLFDCKKLSTEKGVHAYEIVIAKLSTLIDLNRFDVSEVERRSAEIRFLNKYAGLNDNEDHQDDIKRLIEIHGEPTLDTAKKGLAVVKIRIECGNRVETRRLPLGMSIQKIRDMLARLFKVPNTSKIRLYLVMSEKAKQHRIELENPLREFGHYSPSEDRDILVVEHD,not soluble
17,MSLGVEGEMQSFMSDMGVQANVTGPSAYQGQSAGYYSMGSVWSRFPQKNIQPFNLQLPHARAGCGGIDLFAGSFSFINTAELVAMLKATANNALGFAFKLAIDTISPEIGKVMDELAQKVQQMNQMNISSCETAQALVGGLWPKSDTASSVICEAIANSQGAVSDWARARQQCNNGGQREALKSANSDPDMKEQAGMPNNYTWAALGKKYGGFDTQFREFLMTLVGTVIYDPAGNGGKPRVQFIGPADPALISAMLDGTSSTPHKYWSCGGDSAKCMAPSEIDMVIGPNAAIKARVRTLIESMALKVRDPGASLTPAEIQLLGMASVPVYKIITVSAAAEFGISAQEINDLSEIVAVDLVTTMTMRFIDMAVNARSDFNGADADSLREWREGLYETRRNFLGIAARTSQRFDQTFALIQRTQMLEKTLRTQLSPQMSAALRFSRTLGSQVQEGHHHHHH,not soluble
18,MPILEKAPQKMPVKASSWEELDLPKLPVPPLQQTLATYLQCMQHLVPEEQFRKSQAIVKRFGAPGGLGETLQEKLLERQEKTANWVSEYWLNDMYLNNRLALPVNSSPAVIFARQHFQDTNDQLRFAACLISGVLSYKTLLDSHSLPTDWAKGQLSGQPLCMKQYYRLFSSYRLPGHTQDTLVAQKSSIMPEPEHVIVACCNQFFVLDVVINFRRLSEGDLFTQLRKIVKMASNEDERLPPIGLLTSDGRSEWAKARTVLLKDSTNRDSLDMIERCICLVCLDGPGTGELSDTHRALQLLHGGGCSLNGANRWYDKSLQFVVGRDGTCGVVCEHSPFDGIVLVQCTEHLLKHMMTSNKKLVRADSVSELPAPRRLRWKCSPETQGHLASSAEKLQRIVKNLDFIVYKFDNYGKTFIKKQKYSPDGFIQVALQLAYYRLYQRLVPTYESASIRRFQEGRVDNIRSATPEALAFVQAMTDHKAAMPASEKLQLLQTAMQAQTEYTVMAITGMAIDNHLLALRELARDLCKEPPEMFMDETYLMSNRFVLSTSQVPTTMEMFCCYGPVVPNGYGACYNPQPEAITFCISSFHSCKETSSVEFAEAVGASLVDMRDLCSSRQPADSKPPAPKEKARGPTKPSNLDSSH,soluble
19,MLPEKRLLTPDDMKLWEESPTRAHFTKFIIDLAESVKGHENSQYKEPISESINSMMNLLSQIKDITQKHPVIKDADSSRFGKVEFRDFYDEVSRNSRKILRSEFPSLTDEQLEQLSIYLDESWGNKRRIDYGSGHELNFMCLLYGLYSYGIFNLSNDSTNLVLKVFIEYLKIMRILETKYWLEPAGSHGVWGLDDYHFLPFLFGAFQLTTHKHLKPISIHNNELVEMFAHRYLYFGCIAFINKVKSSASLRWHSPMLDDISGVKTWSKVAEGMIKMYKAEVLSKLPIMQHFYFSEFLPCPDGVSPPRGHIHDGTDKDDECNFEGHVHTTWGDCCGIKLPSAIAATEMNKKHHKPIPFD,soluble
